Where “and” joins values, the source holds several entries; their conditions need not be identical. Identical values can stand only once. Ends that are not written are not given here.
What was measured:
[1] = molecular target: T1, angiotensin-converting-enzyme derived from pig kidney (pig) (UniProt F1RRW5); assay: cell-based or functional assay
T1 sequence (looked up): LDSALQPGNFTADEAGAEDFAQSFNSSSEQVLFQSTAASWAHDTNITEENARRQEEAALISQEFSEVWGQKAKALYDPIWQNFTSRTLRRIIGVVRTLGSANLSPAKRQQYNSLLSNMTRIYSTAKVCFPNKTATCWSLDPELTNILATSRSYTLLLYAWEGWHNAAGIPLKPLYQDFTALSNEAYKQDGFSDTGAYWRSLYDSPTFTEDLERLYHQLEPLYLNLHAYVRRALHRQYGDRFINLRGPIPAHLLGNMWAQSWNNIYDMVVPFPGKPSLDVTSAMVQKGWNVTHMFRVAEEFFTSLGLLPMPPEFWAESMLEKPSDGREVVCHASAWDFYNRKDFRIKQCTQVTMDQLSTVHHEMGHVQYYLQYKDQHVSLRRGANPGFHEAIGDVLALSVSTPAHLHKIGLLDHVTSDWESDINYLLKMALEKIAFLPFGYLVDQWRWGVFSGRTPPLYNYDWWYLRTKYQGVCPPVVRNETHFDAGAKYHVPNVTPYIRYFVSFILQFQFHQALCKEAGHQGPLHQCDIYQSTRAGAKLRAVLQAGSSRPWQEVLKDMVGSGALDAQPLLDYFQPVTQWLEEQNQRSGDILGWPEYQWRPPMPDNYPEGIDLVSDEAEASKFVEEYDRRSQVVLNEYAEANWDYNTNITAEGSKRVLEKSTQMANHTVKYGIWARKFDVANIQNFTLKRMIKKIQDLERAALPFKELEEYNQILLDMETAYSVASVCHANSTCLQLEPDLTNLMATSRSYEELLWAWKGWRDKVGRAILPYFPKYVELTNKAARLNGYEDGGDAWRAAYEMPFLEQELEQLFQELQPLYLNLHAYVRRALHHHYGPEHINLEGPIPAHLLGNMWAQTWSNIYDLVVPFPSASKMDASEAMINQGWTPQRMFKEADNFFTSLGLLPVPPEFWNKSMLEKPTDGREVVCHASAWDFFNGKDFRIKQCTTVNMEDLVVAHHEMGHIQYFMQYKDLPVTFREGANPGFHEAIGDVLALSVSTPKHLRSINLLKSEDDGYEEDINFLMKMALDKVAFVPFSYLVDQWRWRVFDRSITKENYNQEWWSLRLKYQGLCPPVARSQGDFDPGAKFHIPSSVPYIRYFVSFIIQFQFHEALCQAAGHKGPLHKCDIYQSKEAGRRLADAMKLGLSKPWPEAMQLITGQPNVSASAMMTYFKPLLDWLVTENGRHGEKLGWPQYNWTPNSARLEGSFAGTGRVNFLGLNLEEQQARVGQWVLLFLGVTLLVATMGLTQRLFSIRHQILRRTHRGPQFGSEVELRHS

ACE from pig kidney = molecular target: T2, ACE from pig kidney (Sus scrofa, UniProt F1RRW5); assay: biochemical; assay type: biochemical
T2 construct: 1 mU ACE from pig kidney (EC 3.4.15.1 (Sigma)); purchased Sigma; host or cells: pig kidney (tissue-derived enzyme)
T2 sequence (F1RRW5 34-1309): T1 sequence (looked up)
How it was run: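 Pig kidney ACE (1 mU) in 25 mM HEPES, 0,3 M NaCl, pH 8,2 was mixed with inhibitor solutions (0,35-200 μM) and started with 2 mM hippuryl-histidyl-leucine solution. After 30 min at 22° C the reaction was stopped with NaOH and the product derivatized with ortho-phthalaldehyde for fluorescence. IC50 was read graphically from % inhibition curves.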

[2] = inhibitor 1.5625 μM, replicates A-D
[3] = inhibitor 3.125 μM, replicates A-D
[4] = inhibitor 6.25 μM, replicates A-D
[5] = inhibitor 12.5 μM, replicates A-D
[6] = inhibitor 25 μM, replicates A-D
[7] = inhibitor 50 μM, replicates A-D
[8] = inhibitor 100 μM, replicates A-D
[9] = inhibitor 200 μM, replicates A-D

Peptid S547 (SPLPEVPP) (peptide)
% inhibition at 0.39 µM, A [1]: 10.2% | % inhibition at 0.39 µM, B [1]: 6.82% | % inhibition at 0.39 µM, C [1]: 6.02% | % inhibition at 0.39 µM, D [1]: 0.575% | % inhibition at 0.78125 µM, A [1]: 9.62% | % inhibition at 0.78125 µM, B [1]: 10% | % inhibition at 0.78125 µM, C [1]: 7.72% | % inhibition at 0.78125 µM, D [1]: 10.8% | % inhibition at 1.5625 µM, A [1]: 13.4% | % inhibition at 1.5625 µM, B [1]: 14.9% | % inhibition at 1.5625 µM, C [1]: 9.3% | % inhibition at 1.5625 µM, D [1]: 12.9% | % inhibition at 3.125 µM, A [1]: 21.8% | % inhibition at 3.125 µM, B [1]: 18% | % inhibition at 3.125 µM, C [1]: 16% | % inhibition at 3.125 µM, D [1]: 11.6% | % inhibition at 6.25 µM, A [1]: 31.4% | % inhibition at 6.25 µM, B [1]: 29.2% | % inhibition at 6.25 µM, C [1]: 28% | % inhibition at 6.25 µM, D [1]: 25.7% | % inhibition at 12.5 µM, A [1]: 36.6% | % inhibition at 12.5 µM, B [1]: 36.5% | % inhibition at 12.5 µM, C [1]: 35.3% | % inhibition at 12.5 µM, D [1]: 34.5% | % inhibition at 25 µM, A [1]: 52% | % inhibition at 25 µM, B [1]: 46.2% | % inhibition at 25 µM, C [1]: 49.3% | % inhibition at 50 µM, A [1]: 67.1% | % inhibition at 50 µM, B [1]: 65% | % inhibition at 50 µM, C [1]: 63.6% | % inhibition at 50 µM, D [1]: 56% | % inhibition at 100 µM, A [1]: 79.8% | % inhibition at 100 µM, B [1]: 78.4% | % inhibition at 100 µM, C [1]: 78.4% | % inhibition at 100 µM, D [1]: 78% | % inhibition at 200 µM, A [1]: 89.6% | % inhibition at 200 µM, B [1]: 89.4% | % inhibition at 200 µM, C [1]: 88.5% | % inhibition at 200 µM, D [1]: 88.6% | fluorescence at 0.39 µM, A [1]: 934000 | fluorescence at 0.39 µM, B [1]: 969000 | fluorescence at 0.39 µM, C [1]: 977000 | fluorescence at 0.39 µM, D [1]: 1.03e+06 | fluorescence at 0.78125 µM, A [1]: 940000 | fluorescence at 0.78125 µM, B [1]: 935000 | fluorescence at 0.78125 µM, C [1]: 959000 | fluorescence at 0.78125 µM, D [1]: 928000 | fluorescence at 1.5625 µM, A [1]: 900000 | fluorescence at 1.5625 µM, B [1]: 885000 | fluorescence at 1.5625 µM, C [1]: 943000 | fluorescence at 1.5625 µM, D [1]: 906000 | fluorescence at 3.125 µM, A [1]: 814000 | fluorescence at 3.125 µM, B [1]: 853000 | fluorescence at 3.125 µM, C [1]: 874000 | fluorescence at 3.125 µM, D [1]: 919000 | fluorescence at 6.25 µM, A [1]: 715000 | fluorescence at 6.25 µM, B [1]: 737000 | fluorescence at 6.25 µM, C [1]: 750000 | fluorescence at 6.25 µM, D [1]: 773000 | fluorescence at 12.5 µM, A [1]: 661000 | fluorescence at 12.5 µM, B [1]: 662000 | fluorescence at 12.5 µM, C [1]: 674000 | fluorescence at 12.5 µM, D [1]: 683000 | fluorescence at 25 µM, A [1]: 502000 | fluorescence at 25 µM, B [1]: 562000 | fluorescence at 25 µM, C [1]: 530000 | fluorescence at 25 µM, D [1]: 560000 | fluorescence at 50 µM, A [1]: 346000 | fluorescence at 50 µM, B [1]: 367000 | fluorescence at 50 µM, C [1]: 382000 | fluorescence at 50 µM, D [1]: 460000 | fluorescence at 100 µM, A [1]: 214000 | fluorescence at 100 µM, B [1]: 229000 | fluorescence at 100 µM, C [1]: 229000 | fluorescence at 100 µM, D [1]: 233000 | fluorescence at 200 µM, A [1]: 113000 | fluorescence at 200 µM, B [1]: 116000 | fluorescence at 200 µM, C [1]: 125000 | fluorescence at 200 µM, D [1]: 124000

EAGAALSPLPEVPP [Peptide S542]
IC50 (ACE from pig kidney; ACE from pig kidney, determined graphically, read-out: IC50-value (ACE inhibition)): 38 µM | fluorescence reading (ACE Inhibitor Assay) (ACE from pig kidney; inhibitor 0.39 μM, replicates A-D): 930945 and 967806 and 1003456 and 906307 | % inhibition (ACE Inhibitor Assay) (ACE from pig kidney; inhibitor 0.39 μM, replicates A-D, 0.39 µM): 4.59% and 0.79% and −2.87% and 7.13% | fluorescence reading (ACE Inhibitor Assay) (ACE from pig kidney; inhibitor 0.78125 μM, replicates A-D): 910838 and 902555 and 939597 and 880680 | % inhibition (ACE Inhibitor Assay) (ACE from pig kidney; inhibitor 0.78125 μM, replicates A-D, 0.78125 µM): 6.66% and 7.52% and 3.7% and 9.77% | fluorescence reading (ACE Inhibitor Assay) (ACE from pig kidney; [2]): 794214 and 874684 and 882788 and 794177 | inhibition at 1.5625 µM (ACE from pig kidney; [2]): 18.7% | % inhibition (ACE Inhibitor Assay) (ACE from pig kidney; inhibitor 1.5625 μM, replicates A-D, 1.5625 µM): 10.39% and 9.55% | fluorescence reading (ACE Inhibitor Assay) (ACE from pig kidney; [3]): 821478 and 820849 and 868901 and 796263 | inhibition at 3.125 µM (ACE from pig kidney; [3]): 15.9% | % inhibition (ACE Inhibitor Assay) (ACE from pig kidney; inhibitor 3.125 μM, replicates A-D, 3.125 µM): 15.93% and 10.98% and 18.47% | fluorescence reading (ACE Inhibitor Assay) (ACE from pig kidney; [4]): 801078 and 799975 and 802324 and 795040 | inhibition at 6.25 µM (ACE from pig kidney; [4]): 18% | % inhibition (ACE Inhibitor Assay) (ACE from pig kidney; inhibitor 6.25 μM, replicates A-D, 6.25 µM): 18.08% and 17.84% and 18.59% | fluorescence reading (ACE Inhibitor Assay) (ACE from pig kidney; [5]): 719799 and 744223 and 765229 and 709216 | inhibition at 12.5 µM (ACE from pig kidney; [5]): 26.3% | % inhibition (ACE Inhibitor Assay) (ACE from pig kidney; inhibitor 12.5 μM, replicates A-D, 12.5 µM): 23.83% and 21.66% and 27.43% | fluorescence reading (ACE Inhibitor Assay) (ACE from pig kidney; [6]): 609106 and 591988 and 618193 and 569641 | inhibition at 25 µM (ACE from pig kidney; [6]): 37.8% | % inhibition (ACE Inhibitor Assay) (ACE from pig kidney; inhibitor 25 μM, replicates A-D, 25 µM): 39.51% and 36.81% and 41.81% | fluorescence reading (ACE Inhibitor Assay) (ACE from pig kidney; [7]): 424530 and 419325 and 440093 and 406539 | inhibition at 50 µM (ACE from pig kidney; [7]): 56.8% | % inhibition (ACE Inhibitor Assay) (ACE from pig kidney; inhibitor 50 μM, replicates A-D, 50 µM): 57.3% and 55.16% and 58.61% | fluorescence reading (ACE Inhibitor Assay) (ACE from pig kidney; [8]): 273140 and 278465 and 286263 and 274375 | inhibition at 100 µM (ACE from pig kidney; [8]): 72.3% | % inhibition (ACE Inhibitor Assay) (ACE from pig kidney; inhibitor 100 μM, replicates A-D, 100 µM): 71.8% and 71% and 72.23% | fluorescence reading (ACE Inhibitor Assay) (ACE from pig kidney; [9]): 167517 and 173807 and 184836 and 169891 | inhibition at 200 µM (ACE from pig kidney; [9]): 83.2% | % inhibition (ACE Inhibitor Assay) (ACE from pig kidney; inhibitor 200 μM, replicates A-D, 200 µM): 82.59% and 81.45% and 82.99%

From patent US20030203373A1 (priority 2002, published 2003)
